Changes are numbered by the printed parent chain.
T1: trimeric murine IL-2 receptor (IL-2Rα, IL-2Rβ, and IL-2Rγ) on CTLL-2 cells (murine, UniProt P01590 22-268; P16297 27-539; P34902 23-369)
T1 sequence (looked up) 1: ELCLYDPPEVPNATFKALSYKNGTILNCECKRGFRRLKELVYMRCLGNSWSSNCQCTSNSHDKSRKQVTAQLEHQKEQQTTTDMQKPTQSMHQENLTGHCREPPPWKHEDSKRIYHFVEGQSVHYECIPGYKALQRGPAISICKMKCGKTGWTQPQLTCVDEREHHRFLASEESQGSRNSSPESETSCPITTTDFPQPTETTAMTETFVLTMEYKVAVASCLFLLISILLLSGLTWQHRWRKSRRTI
T1 sequence (looked up) 2: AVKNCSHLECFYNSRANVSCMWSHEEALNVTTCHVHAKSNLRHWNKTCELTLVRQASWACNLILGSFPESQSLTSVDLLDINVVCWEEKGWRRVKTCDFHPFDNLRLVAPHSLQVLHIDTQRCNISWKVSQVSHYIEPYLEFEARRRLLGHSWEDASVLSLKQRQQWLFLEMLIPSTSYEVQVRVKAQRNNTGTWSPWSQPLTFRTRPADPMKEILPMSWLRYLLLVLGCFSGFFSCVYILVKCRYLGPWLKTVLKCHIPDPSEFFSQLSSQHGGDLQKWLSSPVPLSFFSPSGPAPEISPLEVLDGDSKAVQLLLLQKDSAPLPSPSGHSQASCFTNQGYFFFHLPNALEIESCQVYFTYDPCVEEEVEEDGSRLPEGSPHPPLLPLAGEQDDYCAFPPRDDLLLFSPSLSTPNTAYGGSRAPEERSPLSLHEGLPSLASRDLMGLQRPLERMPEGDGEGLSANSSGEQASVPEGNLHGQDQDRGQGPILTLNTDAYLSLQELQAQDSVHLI
T1 sequence (looked up) 3: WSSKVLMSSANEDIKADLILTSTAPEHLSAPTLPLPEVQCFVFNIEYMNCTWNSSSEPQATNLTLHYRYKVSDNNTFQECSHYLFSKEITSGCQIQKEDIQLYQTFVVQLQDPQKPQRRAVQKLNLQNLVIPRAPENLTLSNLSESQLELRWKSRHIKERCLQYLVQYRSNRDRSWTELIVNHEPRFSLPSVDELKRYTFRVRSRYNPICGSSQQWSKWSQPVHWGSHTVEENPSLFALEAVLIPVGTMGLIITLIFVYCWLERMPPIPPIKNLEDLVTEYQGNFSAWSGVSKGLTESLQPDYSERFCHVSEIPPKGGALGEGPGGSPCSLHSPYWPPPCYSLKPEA

T2: IL-2Rβ and IL-2Rγ on Ba/F3 cells engineered to express murine IL-2Rβ (murine, UniProt P16297 27-539; P34902 23-369)
T2 sequence (looked up) 1: T1 sequence (looked up) 2
T2 sequence (looked up) 2: T1 sequence (looked up) 3

B1: mouse surrogate Fc-IL-2 heterodimer 165.250 (IL2v_C140A), native IL-2Rα binding interface (Fc fusion)
chain 1: GPTIKPCPPCKCPAPNAAGGPSVFIFPPKIKDVLMISLSPIVTCVVVDVSEDDPDVQISWFVNNVEVHTAQTQTHREDYNSTLRVVSALPIQHQDWMSGKEFKCKVNNKDLGAPIERTISKPKGSVRAPQVYVLPPPEEEMTKKQVTLWCMVTDFMPEDIYVEWTNNGKTELNYKNTEPVLDSDGSYFMYSKLRVEKKNWVERNSYSCSVVHEGLHNHHTTKSFSRTPGGGGGSGGGGSGGGGSGGGGSQQQHLEQLLMDLQELLSRMENYRNLKLPRMLTFKFYLPKQATELKDLQCLEDELGPLRHVLDLTQSKSFQLEDAENFISNIRVTVVKLKGSDNTFECQFDDESATVVDFLRRWIAFAQSIISTSPQ
chain 2: GPTIKPCPPCKCPAPNAAGGPSVFIFPPKIKDVLMISLSPIVTCVVVDVSEDDPDVQISWFVNNVEVHTAQTQTHREDYNSTLRVVSALPIQHQDWMSGKEFKCKVNNKDLGAPIERTISKPKGSVRAPQVYVLPPPEEEMTKKQVTLSCAVTDFMPEDIYVEWTNNGKTELNYKNTEPVLDSDGSYFMVSKLRVEKKNWVERNSYSCSVVHEGLHNHHTTKSFSRTPGK
B2: mouse surrogate Fc-IL-2v heterodimer 167.250 (IL2v_F56A_C140A) (Fc fusion)
chain 1: B1 chain 1 with F282A
chain 2: B1 chain 2
B3: mouse surrogate Fc-IL-2v heterodimer 166.250 (IL2v_F56A_Y59A_L86G_C140A) (Fc fusion)
chain 1: B1 chain 1 with F282A, Y285A, L312G
chain 2: B1 chain 2
B4: mouse surrogate Fc-IL-2v heterodimer 171.250 (IL2v_R52G_F56A_E76A_C140A) (Fc fusion)
chain 1: B1 chain 1 with R278G, F282A, E302A
chain 2: B1 chain 2
B5: mouse surrogate Fc-IL-2v heterodimer 168.250 (IL2v_F56A_E76A_C140A) (Fc fusion)
chain 1: B1 chain 1 with F282A, E302A
chain 2: B1 chain 2

These binders were tested against T1, trimeric murine IL-2 receptor (IL-2Rα, …) (assay: cell-based or functional assay).

pSTAT5 EC50, STAT5 activation of CTLL-2 cells | Binder
2 pM | B1
0.12 nM | B2
5.4 nM | B3
88.7 nM | B4
63.1 nM | B5

What follows are binders tested against T2, IL-2Rβ and IL-2Rγ on Ba/F3 cells … (assay: cell-based or functional assay).

Proliferation EC50, Ba/F3 cells | Binder
4.1 nM | B1
5.2 nM | B2
9.5 nM | B3
13 nM | B4
20.6 nM | B5

— patent publication US20240269235A1 (Gilead, published 2024)
